In patent publication US20080242617:

T1: HalA1
T1 chain: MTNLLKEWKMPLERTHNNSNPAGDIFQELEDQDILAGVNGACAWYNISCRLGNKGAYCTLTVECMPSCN

T2: HalA2
T2 chain: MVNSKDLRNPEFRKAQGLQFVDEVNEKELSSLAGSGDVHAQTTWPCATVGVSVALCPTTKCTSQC


Legend:
HalA1 = molecular target: T1, HalA1
HalA2 = molecular target: T2, HalA2

| Protein | dehydration of the peptide, MALDI-TOF MS (HalA1) | iodoacetamide alkylation of free cysteines after HalM modification (cyclization), MALDI-TOF MS (HalA1) | dehydration of the peptide, MALDI-TOF MS (HalA2) | iodoacetamide alkylation of free cysteines after HalM modification (cyclization), MALDI-TOF MS (HalA2) |
| --- | --- | --- | --- | --- |
| HalM1 (protein) MRELQNALYFSEVVFGPNLEKIVGEKRLNFWLKLIGEDPENLKEFLSRKGNSFEEQTLPEKEAIVPNRLGEEALEKVREELEFLNTYSTKHVRRVKELGVQIPFEGILLPFISMYIEKFQQQQLRKKIGPIHEEIWTQIVQDITSKLNAILHRTLILELNVARVTSQLKGDTPEERFAYYSKTYLGKREVTHRLYSEYPVVLRLLFTTISHHISFITEILERVANDREAIETEFSPCSPIGTLASLHLNSGDAHHKQRTVTILEFSSSLKLVYKPRSLKVDGVFNGLLAFLNDRTGEVIKDQYCPKVLQRDGYGYVEFVTHQSCQSLEEVSDFYERLGSLMSLSYVLNSSDFHFENIIAHGPYPVLIDLETIIHNTADSSEETSTAMDRAFRMLNDSVLSTGMLPSSIYYRDQPNMKGLNVGGVSKSEGQKTPFKVNQIANRNTDEMRIEKDHVTLSSQKNLPIFQSAAMESVHFLDQIQKGFTSMYQWIEKNKQEFKEQVRKFEGVPVRAVLRSTTRYTELLKSSYHPDLLRSALDREVLLNRLTVDSVMTPYLKEIIPLEVEDLLNGDVPYFYTLPEERALYQEASAINSTFFTTSIFHKIDQKIDKLGIEDHTQQMKILHMSMLASNANHYADVADLDIQKGHTIKNEQYVEMAKDIGDYLMELSVEGENQGEPDLCWISTVLEGSSEIIWDISPVGEDLYNGSAGVALFYAYLFKITGEKRYQEIAYKALVPVRRSVAQFQHHPNWSIGAFNGASGYLYAMGTIAALFNDERLKHEVTRSIPHIEPMIHEDKIYDFIGGSAGALKVFLSLSGLFDEPKFLELAIACSEHLMKNAIKTDQGIGWKPPWEVTPLTGFSHGVSGVMASFIELYQQTGDERLLSYIDQSLAYERSFFSEQEENWLTPNKETPVVAWCHGAPGILVSRLLLKKCGYLDEKVEKEIEVALSTTIRKGLGNNRSLCHGDFGQLEILRFAAEVLGDSYLQEVVNNLSGELYNLFKTEGYQSGTSRGTESVGLMVGLSGFGYGLLSAAYPSAVPSILTLDGEIQKYREPHEANH | Incubation of HalA1 with HalM1 generated a species that was dehydrated 3-fold | The mass of HalA1 after modification by HalM1 was increased by 116 Da, consistent with the addition of two adducts | Incubation of HalA1 with HalM2 or HalA2 with HalM1 did not result in modified peptide in either case |  |
| HalM2 (protein) TPLTSEHPSVPTTLPHTNDTDWLEQLHDILSIPVTEEIQKYFHAENDLFSFFYTPFLQFTYQSMSDYFMTFKTDMALIERQSLLQSTLTAVHHRLFHLTHRTLISEMHIDKLTVGLNGSTPHERYMDFNHKFNKTSKSKNLFNIYPILGKLVVNETLRTINFVKKIIQHYMKDYLLLSDFFKEKDLRLTNLQLGVGDTHVNGQCVTILTFASGQKVVYKPRSLSIDKQFGEFIEWVNSKGFQPSLRIPIAIDRQTYGWYEFIPHQEATSEDEIERYYSRIGGYLAIAYLFGATDLHLDNLIACGEHPMLIDLETLFTNDLDCYDSAFPFPALARELTQSVFGTLMLPITIASGKLLDIDLSAVGGGKGVQSEKIKTWVIVNQKTDEMKLVEQPYVTESSQNKPTVNGKEANIGNYIPHVTDGFRKMYRLFLNEIDELMDHNGPIFAFESCQIRHVFRATHVYAKFLEASTHPDYLQEPTRRNKLFESFWNITSLMAPFKKIVPHEIAELENHDIPYFVLTCGGTIVKDGYGRDIADLFQSSCIERVTHRLQQLGSEDEARQIRYIKSSLATLTNGDWTPSHEKTPMSPASADREDGYFLREAQAIGDDILAQLIWEDDRHAAYLIGVSVGMNEAVTVSPLTPGIYDGTLGIVLFFDQLAQQTGETHYRHAADALLEGMFKQLKPELMPSSAYFGLGSLFYGLMVLGLQRSDSHIIQKAYEYLKHLEECVQHEETPDFVSGLSGVLYMLTKIYQLTNEPRVFEVAKTTASRLSVLLDSKQPDTVLTGLSHGAAGFALALLTYGTAANDEQLLKQGHSYLVYERNRFNKQENNWVDLRKGNAYQTFWCHGAPGIGISRLLLAQFYDDELLHEELNAALNKTISDGFGHNHSLCHGDFGNLDLLLLYAQYTNNPEPKELARKLAISSIDQAHTYGWKLGLNHSDQLQGMMLGVTGIGYQLLRHINPTVPSILALELPSSTLTEKELRIHDR | Incubation of HalA1 with HalM2 or HalA2 with HalM1 did not result in modified peptide in either case |  | incubation of HalA2 with HalM2 generated a species that was dehydrated 7-fold | The mass of HalA2 modified by HalM2 remained unchanged under the alkylation conditions tested, consistent with the absence of free Cys residues |
